From publication PMC4895972, “Calcium binding protects E-cadherin from cleavage by Helicobacter pylori HtrA” (Gut Pathogens, 2016) come the findings set out here.

The series concerns the molecule itself. In words: non-reducing SDS-PAGE; 3 µg HpHtrA preincubated in 50 mM HEPES pH 7.5 without or with increasing concentrations of CaCl2; sample buffer without β-mercaptoethanol; Coomassie-stained.

B1: recombinant HtrA (high temperature requirement A) from H. pylori strain 26695, wildtype (enzyme)
chain: GNIQIQSMPKVKERVSVPSKDDTIYSYHDSIKDSIKAVVNISTEKKIKNNFIGGGVFNDPFFQQFFGDLGGMIPKERMERALGSGVIISKDGYIVTNNHVIDGADKIKVTIPGSNKEYSATLVGTDSESDLAVIRITKDNLPTIKFSDSNDISVGDLVFAIGNPFGVGESVTQGIVSALNKSGIGINSYENFIQTDASINPGNSGGALIDSRGGLVGINTAIISKTGGNHGIGFAIPSNMVKDTVTQLIKTGKIERGYLGVGLQDLSGDLQNSYDNKEGAVVISVEKDSPAKKAGILVWDLITEVNGKKVKNTNELRNLIGSMLPNQRVTLKVIRDKKERAFTLTLAERKNPNKKETISAQNGAQGQLNGLQVEDLTQETKRSMRLSDDVQGVLVSQVNENSPAEQAGFRQGNIITKIEEVEVKSVADFNHALEKYKGKPKRFLVLDLNQGYRIILVK
notes: also called HpHtrA; H. pylori HtrA; source: E. coli BL21, purified (GSH-Sepharose, GST-tag removed with PreScission protease, dialyzed against 50 mM Tris pH 7.5)
With B1, the binding result is given as “binds”.
